# Values quoted from earlier work, collected in patent US6440936B2, “Anti-protozoan methods and materials” (Xoma Corporation, priority 1994, dated 2002).
# B1: BPI: protein isolated from the granules of mammalian polymorphonuclear neutrophils; human BPI approximately 55 kD (protein, UniProt P17213 32-487, looked up)
# Bactericidal …: VNPGVVVRISQKGLDYASQQGTAALQKELKRIKIPDYSDSFKIKHLGKGHYSFYSMDIREFQLPSSQISMVPNVGLKFSISNANIKISGKWKAQKRFLKMSGNFDLSIEGMSISADLKLGSNPTSGKPTITCSSCSSHINSVHVHISKSKVGWLIQLFHKKIESALRNKMNSQVCEKVTNSVSSELQPYFQTLPVMTKIDSVAGINYGLVAPPATTAETLDVQMKGEFYSENHHNPPPFAPPVMEFPAAHDRMVYLGLSDYFFNTAGLVYQEAGVLKMTLRDDMIPKESKFRLTTKFFGTFLPEVAKKFPNMKIQIHVSASTPPHLSVQPTGLTFYPAVDVQAFAVLPNSSLASLFLIGMHTTGSMEVSAESNRLVGELKLDRLLLELKHSNIGPFPVELLQDIMNYIVPILVLPRVNEKLQKGFPLPTPARVQLYNVVLQPHQNFLLFGADVVYK
# Tests used:
# T. gondii = details: 0.25 μg/ml in cyst medium
# [1] = system: human, rabbit and sheep red blood cells and several human tumor cell lines
# [2] = system: Staphylococcus aureus (four strains), Staphylococcus epidermidis, Streptococcus faecalis, Bacillus subtilis, Micrococcus lysodeikticus, Listeria monocylogenes; details: 10^−6 M or 160 μg/ml; pH 7.0 or 5.5
# [3] = system: Candida albicans and Candida parapsilosis; details: 10^−6 M; Ph 7.0 or 5.5
Molecule,anti-T. gondii effect (T. gondii),toxicity to higher eukaryotic cells [1],toxic effect on gram-positive organisms [2],toxic effect on fungi [3]
C[C@@H]1[C@H](O)[C@@H](C)/C=C/C=C/C=C/C=C/C=C/C=C/C=C/[C@H](O[C@@H]2O[C@H](C)[C@@H](O)[C@H](N)[C@@H]2O)C[C@@H]2O[C@](O)(C[C@@H](O)C[C@@H](O)[C@H](O)CC[C@@H](O)C[C@@H](O)CC(=O)O[C@H]1C)C[C@H](O)[C@H]2C(=O)O [Amphotericin B],does not have a significant anti-T. gondii effect,,,
B1,,non-toxic,no toxic effect,no toxic effect
